Like-named read-outs stand apart in the source and are kept apart here.
T1: Human IL-18 (human, UniProt Q14116 37-193)
T1 construct: Recombinant, made in-house; In the BLI assay the loaded cytokine was captured on anti-Penta His sensors, so a His tag is implied but not described; also called recombinant human IL-18; interleukin 18
T1 sequence: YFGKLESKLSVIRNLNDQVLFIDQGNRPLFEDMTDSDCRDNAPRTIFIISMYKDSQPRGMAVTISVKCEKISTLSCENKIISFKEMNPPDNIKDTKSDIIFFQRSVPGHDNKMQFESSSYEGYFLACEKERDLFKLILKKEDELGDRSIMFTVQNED

T2: Human IL-23 (human, UniProt Q9NPF7 20-189; P29460 23-328)
T2 construct: Disulphide-linked p19/p40 heterodimer, recombinant, made in-house; also called recombinant human IL-23; rhIL-23
T2 sequence 1: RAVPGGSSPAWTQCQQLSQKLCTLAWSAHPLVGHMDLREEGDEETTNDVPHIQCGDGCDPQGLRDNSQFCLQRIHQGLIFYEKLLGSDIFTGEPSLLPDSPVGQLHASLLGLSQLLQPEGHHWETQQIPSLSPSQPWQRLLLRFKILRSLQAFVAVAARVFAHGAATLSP
T2 sequence 2: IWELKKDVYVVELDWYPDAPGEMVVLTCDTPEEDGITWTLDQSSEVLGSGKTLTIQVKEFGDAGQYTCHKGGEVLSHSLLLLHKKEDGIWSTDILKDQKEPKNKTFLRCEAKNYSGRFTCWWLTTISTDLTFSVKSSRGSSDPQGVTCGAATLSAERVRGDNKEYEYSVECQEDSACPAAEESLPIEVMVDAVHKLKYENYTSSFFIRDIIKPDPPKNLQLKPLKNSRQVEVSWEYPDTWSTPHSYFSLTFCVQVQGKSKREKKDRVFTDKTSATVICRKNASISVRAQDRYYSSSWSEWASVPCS

T3: Cynomolgus monkey IL-18 (Rhesus monkey (identical to cynomolgus …, UniProt Q9BGI5 37-193))
T3 sequence: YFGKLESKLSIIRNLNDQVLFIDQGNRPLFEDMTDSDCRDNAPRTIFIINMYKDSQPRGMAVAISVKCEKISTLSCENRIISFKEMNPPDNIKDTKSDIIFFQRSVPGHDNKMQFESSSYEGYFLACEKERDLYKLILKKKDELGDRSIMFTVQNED


Columns and labels:
Human IL-18 [1] = biological target: T1, Human IL-18; experiment: SPR (Biacore), antibody captured on Protein A/G, cytokine as analyte, 25 C, 1:1 fit, n=1
Procedure: (§1) A heterodimeric bsAb, alongside anti-IL-18 and anti-IL-23 common light chain control bispecific antibodies, were assessed for binding to human and cyno IL-18 and IL-23, using the Biacore 8K and T200 (Cytiva) surface plasmon resonance (SPR) instruments. All reagents were generated recombinantly in-house with the exception of Rhesus monkey IL-18 which was purchased from R&D systems (Cat #2548-RM-025/CF). Rhesus and cynomolgus monkey amino acid sequences are identical. Therefore, the protein will be referred to as cynomolgus monkey IL-18.
(§2) Heterodimeric bsAb, anti-IL-18 and anti-IL-23 common light chain bispecific control molecules were assessed for binding to recombinant human and cynomolgus monkey IL-18 and IL-23 using the Biacore 8K and T200 (Cytiva) SPR instruments. The antibodies were captured onto Protein A/G, which was immobilised onto flow cell 2 of 8 channels (Biacore 8K) or flow cells 2, 3 and 4 (Biacore T200) of a CM5 series S sensor chip by primary amine coupling. The IL-18 or IL-23 analytes were passed over the captured antibodies at varying concentrations between 0.04-25 nM. The association phase was for 240 seconds at 30 μl/min, followed by a dissociation step of up to 1200 seconds. A 0 nM (i.e., buffer alone) injection was used to double reference the binding curves. Regeneration of the chip surface between cycles was carried out using 50 mM NaOH. The assay was run at 25° C. in HBS-EP⁺ buffer. Biacore 8K control software version 3.0 was used to run the experiment. Data was analysed using Biacore 8K Insight evaluation software version 3.0. Biacore T200 control software version 1.0 was used to run the experiment. Data was analysed using Biacore T200 evaluation software version 2.0. Affinities and kinetics were determined using the 1:1 kinetic fit inherent to the software where possible. All affinity values generated using both instruments were combined to determine geometric mean values.

Human IL-23 [2] = biological target: T2, Human IL-23; experiment: SPR (Biacore), antibody captured on Protein A/G, cytokine as analyte, 25 C
Procedure: as §1, §2

Human IL-18 [3] = biological target: T1, Human IL-18; experiment: cell-based or functional assay
Human IL-18 [4] = biological target: T1, Human IL-18; experiment: cell-based or functional assay; remark: listed apart in the source
Human IL-18 [5] = biological target: T1, Human IL-18; experiment: cell-based or functional assay; remark: listed apart in the source
Cynomolgus monkey IL-18 [6] = biological target: T3, Cynomolgus monkey IL-18; experiment: cell-based or functional assay
Cynomolgus monkey IL-18 [7] = biological target: T3, Cynomolgus monkey IL-18; experiment: SPR (Biacore 8K/T200), antibody captured on Protein A/G, cytokine as analyte, 25 C, geometric mean of n=3-5
Procedure: as §1, §2

Human IL-18 [8] = biological target: T1, Human IL-18; experiment: as above
Procedure: as §1, §2

Human IL-23 [9] = biological target: T2, Human IL-23; experiment: cell-based or functional assay
Cynomolgus monkey IL-18 [10] = biological target: T3, Cynomolgus monkey IL-18; experiment: SPR (Biacore), antibody captured on Protein A/G, cytokine as analyte, 25 C
Procedure: as §1, §2

Human IL-18 [11] = biological target: T1, Human IL-18; experiment: as above
Procedure: as §1, §2

Human IL-23 [12] = biological target: T2, Human IL-23; experiment: cell-based or functional assay; remark: listed apart in the source
Human IL-23 [13] = biological target: T2, Human IL-23; experiment: cell-based or functional assay; remark: listed apart in the source
Cynomolgus monkey IL-23 = biological target: T4, Cynomolgus monkey IL-23 (cynomolgus monkey); experiment: SPR (Biacore 8K/T200), antibody captured on Protein A/G, cytokine as analyte, 25 C, geometric mean of n=3-5
T4 construct: also called Cyno IL-23
Procedure: as §1, §2

Human IL-23 [14] = biological target: T2, Human IL-23; experiment: as above
Procedure: as §1, §2

Row | binding result (Human IL-23 [2]) | IC50 nM, inhibition of LPS + IL12-induced IFN-γ in human whole blood (Human IL-18 [4]) | pIC50, inhibition of LPS + IL12-induced IFN-γ in human whole blood (Human IL-18 [4]) | IC50 (pM, Mean), neutralisation of human IL-18-induced IFNγ secretion by KG-1 cells (Human IL-18 [5]) | pIC50 (GeoMean), neutralisation of human IL-18-induced IFNγ secretion by KG-1 cells (Human IL-18 [5]) | IC50 (pM, Mean), neutralisation of cynomolgus IL-18-induced IFNγ secretion by KG-1 cells (Cynomolgus monkey IL-18 [6]) | pIC50 (GeoMean), neutralisation of cynomolgus IL-18-induced IFNγ secretion by KG-1 cells (Cynomolgus monkey IL-18 [6]) | Kd (Cynomolgus monkey IL-18 [7]) | Kd (Human IL-18 [8]) | IC50 pM, inhibition of human IL-23-induced mouse IL-17A secretion in mouse splenocytes (Human IL-23 [9]) | pIC50 (M), inhibition of human IL-23-induced mouse IL-17A secretion in mouse splenocytes (Human IL-23 [9]) | IC50 pM (Geomean), neutralisation of human IL-23-induced pSTAT3 in DB cells (MSD) (Human IL-23 [12]) | pIC50 (Geomean), neutralisation of human IL-23-induced pSTAT3 in DB cells (MSD) (Human IL-23 [12]) | IC50, inhibition of IL-23-induced pSTAT3 in T cells of human whole blood (Human IL-23 [13]) | pIC50, inhibition of IL-23-induced pSTAT3 in T cells of human whole blood (Human IL-23 [13]) | Kd (Cynomolgus monkey IL-23) | Kd (Human IL-23 [14]) | Binder | other results
1 | no binding (tested: 0.04-25 nM analyte) |  |  |  |  |  |  |  |  |  |  |  |  |  |  |  |  | IL-18 control 5 (antibody, V domains shown, Anti-IL-18 mAb plus Het-mAb Fc mutations of Heterodimeric bsAbs 1-4 and silencing (LAGA) mutations) VH: QVQLVQSGAEVKKPGASVKVSCKVSGEISTGYYFHWVRQAPGKGLEWMGRIDPEDDSTKYAERFKDRVTMTEDTSTDTAYMELSSLRSEDTAVYYCTTWRIYRDSSGRPFYVMDAWGQGTLVTVSS VL: DIQMTQSPSSVSASVGDRVTITCLASEDIYTYLTWYQQKPGKAPKLLIYGANKLQDGVPSRFSGSGSGTDYTLTISSLQPEDFATYYCLQGSKFPLTFGQGTKLEIK | Kd (Human IL-18 [1]): < 0.01 nM; IC50 (pM, Mean), neutralisation of human IL-18-induced IFNγ secretion by KG-1 cells (Human IL-18 [3]): 52.5 pM; pIC50 (GeoMean), neutralisation of human IL-18-induced IFNγ secretion by KG-1 cells (Human IL-18 [3]): 10.3
2 | no binding (tested: 0.04-25 nM analyte) | 5.5 nM | 8.3 | 52.5 pM | 10.3 | 53.7 pM | 10.3 | 0.064 nM | 0.067 nM |  |  |  |  |  |  |  |  | IL-18 control 1 (antibody, V domains shown, Anti-IL-18 mAb plus Het-mAb Fc mutations of Heterodimeric bsAbs 1-4, silencing (LAGA) and half-life extending (YTE) mutations; also called anti-IL-18 control 1) VH: QVQLVQSGAEVKKPGASVKVSCKVSGEISTGYYFHWVRQAPGKGLEWMGRIDPEDDSTKYAERFKDRVTMTEDTSTDTAYMELSSLRSEDTAVYYCTTWRIYRDSSGRPFYVMDAWGQGTLVTVSS VL: DIQMTQSPSSVSASVGDRVTITCLASEDIYTYLTWYQQKPGKAPKLLIYGANKLQDGVPSRFSGSGSGTDYTLTISSLQPEDFATYYCLQGSKFPLTFGQGTKLEIK | 
3 |  |  |  |  | < 8.48 |  | < 8.48 |  |  | 41.7 pM | 10.4 | 16.6 pM | 10.8 | 163 pM | 9.8 | 0.204 nM | 0.348 nM | IL-23 control 1 (antibody, V domains shown, Anti-IL-23 (risankizumab) mAb plus Het-mAb Fc mutations of Heterodimeric bsAbs 1-4, silencing (LAGA) and half-life extending (YTE) mutations; also called anti-IL-23 control 1; risankizumab variable domains) VH: QVQLVQSGAEVKKPGSSVKVSCKASGYTFTDQTIHWMRQAPGQGLEWIGYIYPRDDSPKYNENFKGKVTITADKSTSTAYMELSSLRSEDTAVYYCAIPDRSGYAWFIYWGQGTLVTVSS VL: DIQMTQSPSSLSASVGDRVTITCKASRDVAIAVAWYQQKPGKVPKLLIYWASTRHTGVPSRFSGSGSRTDFTLTISSLQPEDVADYFCHQYSSYPFTFGSGTKLEIK | binding result (Cynomolgus monkey IL-18 [10]): no binding (tested: 0.04-25 nM analyte); binding result (Human IL-18 [11]): no binding (tested: 0.04-25 nM analyte)
4 |  | 10.5 nM | 8 | 115 pM | 9.94 | 97.7 pM | 10 | 0.068 nM | 0.035 nM | 111 pM | 10 | 58.9 pM | 10.2 | 395 pM | 9.4 | 0.162 nM | 0.297 nM | Heterodimeric bsAb 4 (bispecific antibody, human IgG1, kappa, Het-mAb format: anti-IL-23 mAb (risankizumab) on ZA and anti-IL-18 mAb on ZB, with Fc heterodimerisation, silencing and half-life extending mutations; Stably expressed in CHO cells; also called anti-IL-23xIL-18 HETmAb) heavy 1: QVQLVQSGAEVKKPGSSVKVSCKASGYTFTDQTIHWMRQAPGQGLEWIGYIYPRDDSPKYNENFKGKVTITADKSTSTAYMELSSLRSEDTAVYYCAIPDRSGYAWFIYWGQGTLVTVSSASTKGPSVFPLAPSSKSTSGGTAALGCRVKDYFPEPVTVSWNSGALTSGVHTFPAVLQSSGLYSLSSVVTVPSSSLGTQTYICNVNHKPSNTKVDKKVEPKSCDKTHTCPPCPAPELAGAPSVFLFPPKPKDTLYITREPEVTCVVVDVSHEDPEVKFNWYVDGVEVHNAKTKPREEQYNSTYRVVSVLTVLHQDWLNGKEYKCKVSNKALPAPIEKTISKAKGQPREPQVYVYPPSRDELTKNQVSLTCLVKGFYPSDIAVEWESNGQPENNYKTTPPVLDSDGSFALVSKLTVDKSRWQQGNVFSCSVMHEALHNHYTQKSLSLSPGK light 1: DIQMTQSPSSLSASVGDRVTITCKASRDVAIAVAWYQQKPGKVPKLLIYWASTRHTGVPSRFSGSGSRTDFTLTISSLQPEDVADYFCHQYSSYPFTFGSGTKLEIKRTVAAPSVFIFPPSDEELKSGTASVECLLNNFYPREAKVQWKVDNALQSGNSQESVTEQDSKDSTYSLSSTLTLSKADYEKHKVYACEVTHQGLSSPVTKSFNRGEC heavy 2: QVQLVQSGAEVKKPGASVKVSCKVSGEISTGYYFHWVRQAPGKGLEWMGRIDPEDDSTKYAERFKDRVTMTEDTSTDTAYMELSSLRSEDTAVYYCTTWRIYRDSSGRPFYVMDAWGQGTLVTVSSASTKGPSVFPLAPSSKSTSGGTAALGCEVTDYFPEPVTVSWNSGALTSGVHTFPAVLESSGLYSLSSVVTVPSSSLGTQTYICNVNHKPSNTKVDKKVEPKSCDKTHTCPPCPAPELAGAPSVFLFPPKPKDTLYITREPEVTCVVVDVSHEDPEVKFNWYVDGVEVHNAKTKPREEQYNSTYRVVSVLTVLHQDWLNGKEYKCKVSNKALPAPIEKTISKAKGQPREPQVYVLPPSRDELTKNQVSLLCLVKGFYPSDIAVEWESNGQPENNYLTWPPVLDSDGSFFLYSKLTVDKSRWQQGNVFSCSVMHEALHNHYTQKSLSLSPGK light 2: DIQMTQSPSSVSASVGDRVTITCLASEDIYTYLTWYQQKPGKAPKLLIYGANKLQDGVPSRFSGSGSGTDYTLTISSLQPEDFATYYCLQGSKFPLTFGQGTKLEIKRTVAAPSVFIFPPSDERLKSGTASVVCLLNNFYPREAKVQWKVDNALQSGNSQESVTEQDSKDSTYSLSSRLTLSKADYEKHKVYACEVTHQGLSSPVTKSFNRGEC | Fold change (from anti-IL-23, IL-23 control 1) of IC50, IL-23-induced mouse IL-17A in mouse splenocytes (Human IL-23 [9]): 2.67 fold; Fold change (from IL-18 control 1) of IC50, LPS + IL12-induced IFN-γ in human whole blood (Human IL-18 [4]): 1.9 fold; Fold change (from anti-IL-23, IL-23 control 1) of IC50, IL-23-induced pSTAT3 in T cells of human whole blood (Human IL-23 [13]): 2.42 fold
